Results reported in article PMC4477602 (Journal of Biological Engineering, 2015).

Molecular target: T1, Wild type Clone A, soluble, C-terminal His6
T1 chain: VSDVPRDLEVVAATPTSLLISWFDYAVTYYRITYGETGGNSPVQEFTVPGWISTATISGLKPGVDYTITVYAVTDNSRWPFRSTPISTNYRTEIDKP
Assay: SEC; Superdex 75 10/300 GL, PBS pH 7.4, samples after Co2+ affinity resin; self-association (monomer, dimer, high MW oligomer in the void volume)
Settings: both partners purified

B1: Wild type Clone A, soluble, C-terminal His6 (designed binder)
chain: VSDVPRDLEVVAATPTSLLISWFDYAVTYYRITYGETGGNSPVQEFTVPGWISTATISGLKPGVDYTITVYAVTDNSRWPFRSTPISTNYRTEIDKP
modifications: Glu47 (printed 45) taken from the text's description of wild type CA; Fig. S2 prints Asp / Glu47 (printed 45) taken from the text's description of wild type CA; Fig. S2 prints Asp
stoichiometry N: 2
